Numbered stars: 1 amine (or outer) side, 2 acyl side, 3 side chain; on linkers, the order of the positions; unused ones are H or OH. Square brackets hold non-standard residues; d marks the D form. Suc = O=C(CCC(=O)[*:2])[*:1]; NMeV = CN[C@H](C(=O)O)C(C)C; βAla = NCCC(=O)O
Experiment: AN6 half-life in blood and residual peptide in muscle and plasma
Conditions: in vivo

## Succ-Asp-Ser- D-Trp -N(Me)Val-βAla-Leu-Met-NH2 (Suc-DS[dW][NMeV][βAla]LM-NH2; SMILES CSCC[C@H](NC(=O)[C@H](CC(C)C)NC(=O)CCNC(=O)[C@H](C(C)C)N(C)C(=O)[C@@H](Cc1c[nH]c2ccccc12)NC(=O)[C@H](CO)NC(=O)[C@H](CC(=O)O)NC(=O)CCC(=O)O)C(N)=O) [AN6]
  cleared from blood: ~4.5 min
  half-life time in blood: very short
  peptide residual in muscle and blood after treatment: no peptide residual is detected
  residual peptide in muscle and plasma following treatment: non residual peptide was observed

— patent US20220167645A1, “METHODS OF IMPROVING FISH FEED CONVERSION RATE AND SURVIVAL” (AQUINOVO LTD., priority 2019, published 2022)
